Laboratory results taken from IntAct's records for PubMed 18423204.

B1: Catenin beta-1 (Mus musculus), Q02248 (parent)
chain: MATQADLMELDMAMEPDRKAAVSHWQQQSYLDSGIHSGATTTAPSLSGKGNPEEEDVDTSQVLYEWEQGFSQSFTQEQVADIDGQYAMTRAQRVRAAMFPETLDEGMQIPSTQFDAAHPTNVQRLAEPSQMLKHAVVNLINYQDDAELATRAIPELTKLLNDEDQVVVNKAAVMVHQLSKKEASRHAIMRSPQMVSAIVRTMQNTNDVETARCTAGTLHNLSHHREGLLAIFKSGGIPALVKMLGSPVDSVLFYAITTLHNLLLHQEGAKMAVRLAGGLQKMVALLNKTNVKFLAITTDCLQILAYGNQESKLIILASGGPQALVNIMRTYTYEKLLWTTSRVLKVLSVCSSNKPAIVEAGGMQALGLHLTDPSQRLVQNCLWTLRNLSDAATKQEGMEGLLGTLVQLLGSDDINVVTCAAGILSNLTCNNYKNKMMVCQVGGIEALVRTVLRAGDREDITEPAICALRHLTSRHQEAEMAQNAVRLHYGLPVVVKLLHPPSHWPLIKATVGLIRNLALCPANHAPLREQGAIPRLVQLLVRAHQDTQRRTSMGGTQQQFVEGVRMEEIVEGCTGALHILARDVHNRIVIRGLNTIPLFVQLLYSPIENIQRVAAGVLCELAQDKEAAEAIEAEGATAPLTELLHSRNEGVATYAAAVLFRMSEDKPQDYKKRLSVELTSSLFRTEPMAWNETADLGLDIGAQGEALGYRQDDPSYRSFHSGGYGQDALGMDPMMEHEMGGHHPGADYPVDGLPDLGHAQDLMDGLPPGDSNQLAWFDTDL

Variants of: B1
Conditions: with MAPK9, P45984-1

Row | effect of a mutation on the interaction | Variant
1 | disrupting interaction | S191A;S246A;S605A
2 | decreasing interaction | S246A

Continued, variant first:

Row | Variant | effect of a mutation on the interaction
3 | S605A | decreasing interaction
4 | S191A | disrupting interaction
